# Assay results published in patent US8383602B2, “Use of TRIM72 as a target for muscle and heart enhancer” (Korea University Industrial & Academic Collaborative …, priority 2007, dated 2013).
# Residues, ends and D or L forms follow the SMILES beside them. *: point of attachment. Cbz = O=C(OCc1ccccc1)*
# B1: TRIM72: TRIM72 protein (SEQ ID NO: 1 or 2) or its gene, overexpressed via adenoviral vector or plasmid; negative regulator of muscle differentiation (protein)
# chain: MSAAPGLLHQELSCPLCLQLFDAPVTAECGHSFCRACLGRVAGEPAADGTVLCPCCQAPTRPQALSTNLQLARLVEGLAQVPQGHCEEHLDPLSIYCEQDRALVCGVCASLGSHRGHRLLPAAEAHARLKTQLPQQKLQLQEACMRKEKSVAVLEHQLVEVEETVRQFRGAVGEQLGKMRVFLAALEGSLDCEAERVRGEAGVALRRELGSLNSYLEQLRQMEKVLEEVADKPQTEFLMKYCLVTSRLQKILAESPPPARLDIQLPIISDDFKFQVWRKMFRALMPALEELTFDPSSAHPSLVVSSSGRRVECSEQKAPPAGEDPRQFDKAVAVVAHQQLSEGEHYWEVDVGDKPRWALGVIAAEAPRRGRLHAVPSQGLWLLGLREGKILEAHVEAKEPRALRSPERRPTRIGLYLSFGDGVLSFYDASDADALVPLFAFHERLPRPVYPFFDVCWHDKGKNAQPLLLVGPEGAEA
# modifications: left off: small tags and cut ends
# notes: negative regulator of muscle differentiation
# B2: C14A TRIM72: TRIM72 mutant protein in which the 14th amino acid is substituted from cystine to alanine (protein, listed as Mus musculus)
# chain: MSAAPGLLRQELSAPLCLQLFDAPVTAECGHSFCRACLIRVAGEPAADGTVACPCCQAPTRPQALSTNLQLSRLVEGLAQVPQGHCEEHLDPLSIYCEQDRTLVCGVCASLGSHRGHRLLPAAEAQARLKTQLPQQKMQLQEACMRKEKTVAVLEHQLVEVEETVRQFRGAVGEQLGKMRMFLAALESSLDREAERVRGDAGVALRRELSSLNSYLEQLRQMEKVLEEVADKPQTEFLMKFCLVTSRLQKILSESPPPARLDIQLPVISDDFKFQVWKKMFRALMPALEELTFDPSSAHPSLVVSSSGRRVECSDQKAPPAGEDTRQFDKAVAVVAQQLLSQGEHYWEVEVGDKPRWALGVMAADASRRGRLHAVPSQGLWLLGLRDGKILEAHVEAKEPRALRTPERPPARIGLYLSFADGVLAFYDASNPDVLTPIFSFHERLPGPVYPIFDVCWHDKGKNAQPLLLVGPEQEQA
# modifications: or SEQ ID NO 2
# notes: TRIM72 mutant protein in which the 14th amino acid is substituted from cystine to alanine
# Columns and labels:
# Assay type in all cases: cell-based
# [1] = tested on: TRIM72 promoter; assay: TRIM72 promoter-luciferase activity during muscle differentiation, pharmacological inhibitors; conditions: FIG. 14A
# Experimental: (§1) A. CEMI promoter-luciferase fused gene having E2 and E3 was expressed in C2C12 myoblasts for 24 hours and muscle differentiation into myotubes was induced for 24 hours. While inducing muscle differentiation, PI3K inhibitor (LY294002, 10 μM), mTOR inhibitor (rapamycin, 100 nM), GSK3β inhibitor (LiCl, 5 mM) and MAPK inhibitor (PD98059, 10 μM) were treated and luciferase activity was measured. B. CEMI promoter-luciferase fused gene having E2 and E3 and MyoD gene were expressed in C2C12 myoblasts for 24 hours. After treating with various agents for 24 hours, luciferase activity was measured. C. […] After inducing muscle differentiation into myotubes for 24 hours, luciferase activity was measured. […] After inducing differentiation for 24 hours, luciferase activity was measured.
# (§2) IRS-1 constructs (full-length, 1-3729; PH-PTB domain, 1-900; Mid-region, 880-2608; Rear-region, 2581-3729) and TRIM72 cDNA constructs (full-length, 1-1431; ΔRING, 181-1431; coiled-coil, 367-1020; CCSPRY, 367-1431; SPRY, 687-1431; Δcoiled-coil) were generated by PCR using the primers described in Table 1 and cloned into pCMV-Tag2B vector and pCMV-3Tag4a vector (Stratagene), respectively. […] Luciferase activity in cell lysates was measured by using the luciferase assay system (Promega) in a Luminoskan Ascent (Thermo Labsystem). […]
# [2] = tested on: TRIM72 promoter; assay: MyoD-dependent TRIM72 promoter-luciferase activity in myoblasts, pharmacological inhibitors; conditions: agents treated 24 hours, FIG. 14B
# Experimental: as §1, §2
# [3] = tested on: IRS-1; assay: IRS-1 expression in 293 cells co-transfected with TRIM72; conditions: IRS-1 and TRIM72 transfected, FIG. 11A
# Experimental: (§3) A. IRS-1 (6 μg) and TRIM72 (2 μg) were transfected into HEK 293 cells for 30 hours and expression of IRS-1 and TRIM72 was investigated after treating with the proteosomal degradation inhibitor MG132 for 10 hours. B. IRS-1 (3 μg) and TRIM72 at various concentrations (0, 0.5, 1, 2 μg) were transfected into 293 cells for 30 hours and expression of IRS-1 was investigated. C. HA-TRIM72 (or HA-TRIM72 C14A), Flag-IRS-1 and His-ubiquitin were transfected into 293 cells for 30 hours and MG132 was treated for 10 hours. Ubiquitination of IRS-1 was identified by immunoblotting using His after immunoprecipitation with Flag antibody. Red brace denotes ubiquitination of IRS-1.
# as §2
# (§4) Western blotting and immunostaining were performed as described in Kim, K. B. et al. Proteomics 6, 2444-53 (2006). […] The immunoprecipitates were analyzed by Western blotting.
# [4] = tested on: C2C12 myoblasts; assay: Muscle differentiation (myogenesis) after TRIM72 overexpression by adenoviral vector or TRIM72 interference by SiRNA
# Experimental: (§5) C2C12 cells were purchased from ATCC and grown in Dulbecco's modified Eagle's medium (DMEM) supplemented with 2% penicillin/streptomycin (WelGene) and 10% fetal bovine serum (WelGene) in a 5% CO2 incubator at 37° C. Confluent C2C12 myoblasts were differentiated into myotubes by incubation with DMEM supplemented with the same antibiotics and 2% horse serum. Every 48 hours, the myotubes were fed with fresh DMEM containing 2% horse serum. Male C57BL/Ksj mice were maintained on a controlled lighting schedule, with a 12-h dark period. Twenty-week-old mice were used in all of the experiments in this study.
# (§6) An adenoviral vector with TRIM72 was constructed using ViraPower™ Adenoviral Expression System (Invitrogen) under control of the cytomegalovirus (CMV). Full-length-TRIM72 ORF (open reading frame) was cloned into an entry vector pENTR (Invitrogen) using the restriction enzyme sites (SalI and NotI) and homologously recombined into a destination vector pAd/CMV/V5-DEST (Invitrogen) which has the adenoviral genome and CMV promotor. The cloned TRIM72-adenoviral genome was linearlized by cutting with PacI restriction enzyme and transfected into 293A cells using a transfection agent (GenePorter II). After 10-15 days of the transfection, the supernatant comprising adenovirus was re-transfected into 293A cells to obtain the amplified adenovirus. The obtained adenovirus supernatant was purified into adenovirus particles using cessium chlororide. C2C12 myoblasts grown in 6 well plates were infected by adenovirus with the dosage of 4×10^10 VP/ml.
# (§7) SiRNA oligomer targeting TRIM72 was designed from Dharmacon. Target sequence of TRIM72 is 5′-[…]-3′. The cell cultures were transfected with control RNAi and TRIM72 specific siRNA using transfection reagent (TransIT®-TKO, Mirus), which was prepared according manufacturer's instruction. Transfected cells were then transferred to media containing 2% horse serum at least for 48 h.
# Western blotting and immunostaining were performed as described in Kim, K. B. et al. Proteomics 6, 2444-53 (2006). For immunoprecipitation, cells were lysed in buffer containing 20 mM Tris-HCl pH 7.4, 137 mM NaCl, 1 mM MgCl2, 1 mM CaCl2, 20 mM NaF, 10 mM Na4P2O7, 1% NP-40, 1 mM Na3VO4, 1 mM PMSF and protease inhibitor cocktail (Roche). The whole cell lysates (600 μg protein) were incubated with specific antibodies for 90 min and then with 50 μl of Protein A-sepharose or G-agarose bead (50%) slurry for 1 h. The immunoprecipitates were analyzed by Western blotting.
# [5] = tested on: AKT; assay: IGF-1-induced AKT phosphorylation after TRIM72 overexpression or knockdown; conditions: myoblasts (overexpression) / myotubes (knockdown), FIG. 7A
# Excerpt: as §6
# (§8) SiRNA oligomer targeting TRIM72 was designed from Dharmacon. Target sequence of TRIM72 is 5′-[…]-3′. The cell cultures were transfected with control RNAi and TRIM72 specific siRNA using transfection reagent (TransIT®-TKO, Mirus), which was prepared according manufacturer's instruction. […]
# as §4
# [6] = tested on: ERK1/2; assay: IGF-1-induced ERK1/2 phosphorylation after TRIM72 overexpression or knockdown; conditions: myoblasts (overexpression) / myotubes (knockdown), FIG. 7A
# Excerpt: as §6, §8, §4
# [7] = tested on: PI3K; assay: IGF-1-induced PI3K activation (PI(3)K activity of anti-p85 immunoprecipitates); conditions: FIG. 7B
# Excerpt: as §6
# as §7, with “h. […]” for “h.”
# [8] = tested on: IGFR; assay: IGF-I-induced tyrosine phosphorylation of IGFR (immunoprecipitation); conditions: FIG. 8
# Excerpt: as §6, §8, §4
# [9] = tested on: IRS-1; assay: IGF-I-induced tyrosine phosphorylation of IRS-1 (immunoprecipitation); conditions: IGF-I stimulation, FIG. 8
# Excerpt: as §6, §8, §4
# [10] = tested on: IRS-1 with PI3K; assay: Molecular association of IRS-1 with PI3K after IGF-I stimulation (immunoprecipitation); conditions: FIG. 8
# Excerpt: as §6, §8, §4
# [11] = tested on: C2C12 myoblasts; assay: Muscle differentiation of C2C12 myoblasts transfected with wild type or mutant TRIM72 genes; conditions: genes expressed in C2C12 myoblasts, differentiation induced, FIG. 10B
# Experimental: as §5
# as §2, with “respectively. Alternatively, TRIM72 and TRIM72 C14A were generated by PCR reaction using the primers described in Table 1 and cloned into pHM6-HA vector, pCMV-Tag2B or pHM6 vector (Roche).” for “respectively.”
# [12] = tested on: IRS-1; assay: IRS-1 ubiquitination in 293 cells; conditions: TRIM72, IRS-1 and ubiquitin co-expressed in 293 cells, MG132 treated, FIG. 11C
# Experimental: as §3
# 293T cells are transfected with pCMV-HA-TRIM72 (1 μg) or pCMV-HA-TRIM72 C14A (1 μg) and pCMV-Flag-IRS-1 (3 μg) and His-ubiquitin (3 μg) using Polyfect (Qiagen). Twenty-four hours after transfection, cells were treated with MG132 (5 μM) for 12 h. Cell lysates were immunoprecipitated with anti-Flag for 2 h. The immunoprecipitates were analyzed by Western blotting against anti-His antibody.
# [13] = tested on: M-Cadherin; assay: M-Cadherin expression after TRIM72 overexpression or Si-RNA; conditions: FIGS. 12C-12E
# Excerpt: as §6, §8, §4
molecule,measurement,setting,value
O=c1cc(N2CCOCC2)oc2c(-c3ccccc3)cccc12 [LY294002],decrease of TRIM72 transcription in IGF-I induced muscle differentiation,[1]; LY294002 10 μM,4 times
[Cl-].[Li+] [LiCl],change of TRIM72 transcription in IGF-I induced muscle differentiation,"[1]; rapamycin 100 nM, LiCl 5 mM",no change
same,MyoD-dependent TRIM72 transcription in myoblasts,[2],not affected
"CC(C)C[C@@H](C=O)NC(=O)[C@H](CC(C)C)NC(=O)[C@H](CC(C)C)NC(=O)OCc1ccccc1 [MG132, reference compound] (Cbz-Leu-Leu-Leu-aldehyde)",expression of IRS-1,[3],expressed normally
B1,myogenesis,"[4]; C2C12, FIG. 6A (H&E staining)",prevented
same,"myogenesis as determined by expression level of myogenesis marker proteins (myogenin, caveolin-3 and MyHC) and nucleus number per myotubes","[4]; C2C12, FIGS. 6C and 6D",completely prevented
same,amount of MyHC,"[4]; C2C12, MyHC staining, FIG. 6B",decreased
same,fusion between cells,"[4]; overexpression in myoblasts, FIG. 6",completely inhibits
same,IGF-1-induced AKT phosphorylation,[5],inhibited
same,IGF-1-induced ERK1/2 phosphorylation,[6],not changed
same,IGF-1-induced PI3K activation,[7],abrogated
same,tyrosine phosphorylation of IGFR induced by IGF-I,[8],not changed
same,tyrosine phosphorylation of IRS-1,[9],decreased
same,molecular association of IRS-1 with PI3K after IGF-I stimulation,[10],weakened
same,muscle differentiation,[11],inhibited
same,expression of IRS-1,[3],decreased
same,IRS-1 ubiquitination,[12],increased
same,expression of M-Cadherin,[13],decreased
B2,muscle differentiation,[11],enhanced
same,IRS-1 ubiquitination,[12],completely inhibited
